{
  "source": "FireProtDB (doi:10.1002/pro.5560050915)",
  "parents": {"B1": {"name": "Adrenodoxin, mitochondrial, P00257 (parent)", "chain": "MAARLLRVASAALGDTAGRWRLLARPRAGAGGLRGSRGPGLGGGAVATRTLSVSGRAQSSSEDKITVHFINRDGETLTTKGKIGDSLLDVVVQNNLDIDGFGACEGTLACSTCHLIFEQHIFEKLEAITDEENDMLDLAYGLTDRSRLGCQICLTKAMDNMTVRVPDAVSDARESIDMGMNSSKIE"}},
  "variants_of": "B1",
  "conditions": "Bos taurus; pH 8.5; Thermal; DSC; ascorbate 1 mM; structure 1AYF; whole UniProt chain shown",
  "data": [
    {"variant": "H114Q", "values": [
      {"measurement": "Tm", "result": 46.5, "unit": "°C"},
      {"measurement": "change of melting temperature, mutant - wild type (higher = more stable)", "result": -4.94, "unit": "°C"},
      {"measurement": "heat capacity change of unfolding", "result": 1.7, "unit": "kcal/mol/K"},
      {"measurement": "unfolding enthalpy (calorimetric)", "result": 59.6, "unit": "kcal/mol"}
    ]},
    {"variant": "Y140S", "values": [
      {"measurement": "Tm", "result": 50.6, "unit": "°C"},
      {"measurement": "change of melting temperature, mutant - wild type (higher = more stable)", "result": -0.79, "unit": "°C"},
      {"measurement": "heat capacity change of unfolding", "result": 1.96, "unit": "kcal/mol/K"},
      {"measurement": "unfolding enthalpy (calorimetric)", "result": 79.9, "unit": "kcal/mol"}
    ]},
    {"variant": "C153S", "values": [
      {"measurement": "Tm", "result": 55.8, "unit": "°C"},
      {"measurement": "change of melting temperature, mutant - wild type (higher = more stable)", "result": 4.36, "unit": "°C"},
      {"measurement": "heat capacity change of unfolding", "result": 1.62, "unit": "kcal/mol/K"},
      {"measurement": "unfolding enthalpy (calorimetric)", "result": 89.3, "unit": "kcal/mol"}
    ]}
  ]
}
